# Measurements reported in the supplement of paper PMC9170038.
# Test system: MS2 coat protein
# Experiment: apparent KD of MS2 coat protein; designed switch direction (-1 OFF switch, 1 ON switch): -1; higher = weaker reporter binding
# How it was run: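 Apparent KD, taken as the median over clusters for each design, was obtained by curve-fitting normalised cluster fluorescence. Designed RNA switches had been transcribed on Illumina chips by stalled E. coli RNA polymerase and titrated with SNAP-549-labelled MS2 coat protein, doubling from 0.7 or 1.5 nM to 3 µM.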
# [1] = Eterna round: R95, input ligand: FMN 200 uM
# [2] = Eterna round: R95, input ligand: microRNA oligo, concentration not stated
# [3] = Eterna round: R95, input ligand: none
# [4] = input ligand: microRNA oligo, concentration not stated
sequence,measurement,setting,value
"GGAAGUAGAAACCGAUCCUACAUGAGGAUCACCCAUGUAGCAAGACGUGCACGCGAAGCUCGUCAGACUACCAGAAA [salish99_TOv1_r3_009] (puzzle: Sensor v3, turn-off variant 1)",apparent KD of MS2 coat protein,[1],301 nM
same,apparent KD of MS2 coat protein,[2],286 nM
same,apparent KD of MS2 coat protein,[3],293 nM
"ACCUCACAUGAGGAUCACCCAUGUCAGGAUAUCUAAUAUAGUAGCGUUCCCGACGCUAAGAGAAGGGACAUUAA [EX1 #32] (Eterna round: R97, puzzle: Exclusion 1)",apparent KD of MS2 coat protein,input ligand: FMN 200 uM,23 nM
same,apparent KD of MS2 coat protein,input ligand: none,13.9 nM
AAGAGGUCAGGAUAUACGGGAAGAGAGAGAAGUAGAGGGUAACAUGAGGAUCACCCAUGUAGAAGGGACUAAGA [JR_Exclu2_Sub072] (puzzle: Exclusion 2),apparent KD of MS2 coat protein,[1],34.5 nM
same,apparent KD of MS2 coat protein,[2],29.6 nM
same,apparent KD of MS2 coat protein,[3],33.4 nM
"UUUUACAAGCCAGAUCCUCACAUGAGGAUCACCCAUGUGCUCGUCUGUUUUUGUACUAUCACGUUUGUGAUAGUGUU [Level Boss var2-09] (puzzle: Sensor v3, turn-off variant 1)",apparent KD of MS2 coat protein,[1],189 nM
same,apparent KD of MS2 coat protein,[2],14.6 nM
same,apparent KD of MS2 coat protein,[3],189 nM
"CUGUUUUUCGCAGGAUAUGCUCCUCCAUUAUUUGCAGAAGGGCGUUGAACAUGAGGAUCACCCAUGUAUGGUAAUGACUAUUGC [JR_ExcNG1_Sub067] (Eterna round: R96, puzzle: Exclusion NG 1)",apparent KD of MS2 coat protein,input ligand: FMN 200 uM,23.5 nM
same,apparent KD of MS2 coat protein,[4],14.7 nM
same,apparent KD of MS2 coat protein,input ligand: none,22.4 nM
AGCAUGUAAGGAUAUGUAACGCGGCUUUCAUUCGCCGUCCCACAGAAGGUACAUGAGGAUCACCCAUGUGCUCC [Solaisorin] (puzzle: Exclusion 4),apparent KD of MS2 coat protein,[2],33.3 nM
"CCUGCGUGAGGAUAUACAUGAGGAUCACCCAUGUCACAAUUAACACACUCCGCCUCACGUAGAAGGCACGCAUA [Tienarra] (Eterna round: R97, puzzle: Exclusion 3)",apparent KD of MS2 coat protein,input ligand: FMN 200 uM,23.1 nM
same,apparent KD of MS2 coat protein,input ligand: none,13.6 nM
"GGUCUACAUGAGGAUCACCCAUGUAAGGAUAUCUACAUUGAAGCUUCGGCUUCAAUGUAGAGAAGGUGCAUAAU [E1/11-B1] (Eterna round: R97, puzzle: Exclusion 1)",apparent KD of MS2 coat protein,input ligand: FMN 200 uM,37.3 nM
same,apparent KD of MS2 coat protein,input ligand: none,31.4 nM
"GCAAGCUUUUGCUCGUCUUACAUGAGGAUCACCCAUGUCGGGUUCGGUCGUCGCGGCUGGGCUUGCCGGGCGCCGGG [-28.7, -55.8 kcal, A 10%] (Eterna round: R97, puzzle: Sensor, turn-off variant 1)",apparent KD of MS2 coat protein,input ligand: FMN 200 uM,215 nM
same,apparent KD of MS2 coat protein,input ligand: none,244 nM
"CUGAGGUAGCGGUCCUAUGACAUGAGGAUCACCCAUGUACCUUGCUUUGAGCAAUUUGCUCGUCUUAUGAUUCUCGG [Mat - Sensor v3 - turn-off var 1 - JL Mod - D46] (puzzle: Sensor v3, turn-off variant 1)",apparent KD of MS2 coat protein,[1],446 nM
same,apparent KD of MS2 coat protein,[2],468 nM
same,apparent KD of MS2 coat protein,[3],533 nM
CCUCCACAUGAGGAUCACCCAUGUCAGGAUAUCGUGUGUUUUUUUUCGGUCGCGCGUGCGAGAAGGGACGUCUU (puzzle: Exclusion 1),apparent KD of MS2 coat protein,[2],23.7 nM
"GUCUAGCGAGGAUAUUGCAGACGAAACAUGAGGAUCACCCAUGUGGCCUUGUGCCGUGUGCAAGAAGGCGCGAGGC [Gelelaor] (Eterna round: R97, puzzle: Exclusion 5)",apparent KD of MS2 coat protein,input ligand: FMN 200 uM,297 nM
same,apparent KD of MS2 coat protein,input ligand: none,268 nM
GGUUGACAUGAGGAUCACCCAUGUGAGGAUAUGCGAGAGAAAAAAGUGAGGAAGAAAAGUAGAAGGCGCUGACG [salish99-ex1_r3_001] (puzzle: Exclusion 1),apparent KD of MS2 coat protein,[1],59.9 nM
same,apparent KD of MS2 coat protein,[2],49 nM
same,apparent KD of MS2 coat protein,[3],57.1 nM
"UUAUACAAGCAAAGAUCCCACAUGAGGAUCACCCAUGUGCUCGUCUUAUAAGGUACUGUGACGAUAGUCACGGUACC [Mat - Sensor, turn-off var - Eli Mod - D102] (Eterna round: R97, puzzle: Sensor, turn-off variant 1)",apparent KD of MS2 coat protein,input ligand: FMN 200 uM,38.3 nM
same,apparent KD of MS2 coat protein,input ligand: none,49.9 nM
"GUCAUCACACAUGGGAUCAACAUGAGGAUCACCCAUGUUGUCAAGUUUUUUGCUCGUCUUAUAAUACGUUUGAUGAG [Mod-Jxd] (Eterna round: R97, puzzle: Sensor, turn-off variant 1)",apparent KD of MS2 coat protein,input ligand: FMN 200 uM,135 nM
same,apparent KD of MS2 coat protein,input ligand: none,154 nM
"UGUUGUCGCGUAGGAUAUGCAUGAGGAUCACCCAUGCAAUUAGAGUUAACAUGAGGAUCACCCAUGUAGAAGGGCGGGACAACU [pwkr exNG2 2xF5 1xFMN.7] (Eterna round: R96, puzzle: Exclusion NG 2)",apparent KD of MS2 coat protein,input ligand: FMN 200 uM,62.8 nM
same,apparent KD of MS2 coat protein,[4],42.2 nM
same,apparent KD of MS2 coat protein,input ligand: none,51.2 nM
"GCCUCACAUGAGGAUCACCCAUGUCAGGAUAUAGGAGACGGCAGAAAUCCUGCCAUCGCUAGAAGGGACUGGCA [Tirebi] (Eterna round: R96, puzzle: Exclusion 1)",apparent KD of MS2 coat protein,input ligand: FMN 200 uM,138 nM
same,apparent KD of MS2 coat protein,[4],50.6 nM
same,apparent KD of MS2 coat protein,input ligand: none,67 nM
"CUUAAUUGUCAGAUGGGUGACAUGAGGAUCACCCAUGUCACAAGCUUUUUGCUCGUCUUAUAAUUAACCCAUCUGAC [Stov1/11-A4] (Eterna round: R97, puzzle: Sensor, turn-off variant 1)",apparent KD of MS2 coat protein,input ligand: FMN 200 uM,13.5 nM
same,apparent KD of MS2 coat protein,input ligand: none,13.4 nM
"AAACCCUGAGGAUAUACAUAACAACAAAGCCUCACGUGCCAACAUGAGGAUCACCCAUGUAGAAGGCGGGCCAA [Mod R3 Insanara 14 - Jieux - Exclusion 2] (Eterna round: R97, puzzle: Exclusion 2)",apparent KD of MS2 coat protein,input ligand: FMN 200 uM,37.3 nM
same,apparent KD of MS2 coat protein,input ligand: none,15.1 nM
"GUGGUUCCUGUCAGGAUAUACGCGGACCACCACCUGUAGAAGGGACAUGAGGAUCACCCAUGUUUUCCAAAGCG [Eternabot (L2) Solution 80] (Eterna round: R97, puzzle: Brourd's mod of Exclusion 4)",apparent KD of MS2 coat protein,input ligand: FMN 200 uM,13.2 nM
same,apparent KD of MS2 coat protein,input ligand: none,13 nM
"AGUACUAACACGUGUGUGUUAGUACAAUAAGCUUGUGAAACAUGAGGAUCACCCAUGUCCUCAUAAGCUCGUCUUAU [salish99_TOv2_r3_074] (puzzle: Sensor v3, turn-off variant 2)",apparent KD of MS2 coat protein,[1],16.1 nM
same,apparent KD of MS2 coat protein,[2],813 nM
same,apparent KD of MS2 coat protein,[3],15 nM
GUGUACAGAGGAUAUACUUGAAUCUAGCGAAGCUAGGUUCGACAUGAGGAUCACCCAUGUAGAAGGCUGUACAC [Dot plot directed A v2] (puzzle: Exclusion 2),apparent KD of MS2 coat protein,[2],12.4 nM
"AGGUCUCGUGUCAGGAUAUAUUUUCUCUGAGCAAGGUAGAAGGGACAUGAGGAUCACCCAUGUCUGAGGAAAAU [Eternabot (L1) Solution 34] (Eterna round: R97, puzzle: Brourd's mod of Exclusion 4)",apparent KD of MS2 coat protein,input ligand: FMN 200 uM,24 nM
same,apparent KD of MS2 coat protein,input ligand: none,19.1 nM
UUUUAACAUGAGGAUCACCCAUGUGAGGAUAUCGUUUUUUAUAUUAAUAUUAAUAAAACGAGAAGGCACAUUUU [JMF 10] (puzzle: Exclusion 1),apparent KD of MS2 coat protein,[2],121 nM
"UUUGCAAGCUUAAGAUCCCACAUGAGGAUCACCCAUGUUGCUGCCGUGAGGUAGCAUUUAACUUAUGCUCGUCUUAU [JL TOV1 3.50] (Eterna round: R97, puzzle: Sensor, turn-off variant 1)",apparent KD of MS2 coat protein,input ligand: FMN 200 uM,140 nM
same,apparent KD of MS2 coat protein,input ligand: none,176 nM
UGCAUGGUAGGAUAUACGGAGCAUUAGGGUUUGUUGUGUGGACAUGAGGAUCACCCAUGUAGAAGGGCCGUGCU [JL-ex2-2.17 mat747 mod] (puzzle: Exclusion 2),apparent KD of MS2 coat protein,[2],35.5 nM
"UAAGAGUGAGGAUAUACGUCGCUGGUCGGGAUGGACGCAUGACAUGAGGAUCACCCAUGUAGAAGGCACAAAAC [Enxela Mod 10 - Jieux - Exclusion 2] (Eterna round: R97, puzzle: Exclusion 2)",apparent KD of MS2 coat protein,input ligand: FMN 200 uM,87.6 nM
same,apparent KD of MS2 coat protein,input ligand: none,25.4 nM
"CUCUCACAUGAGGAUCACCCAUGUCAGGAUAUCUCAGUGCAUCCACACGGACGCAUCAAGAGAAGGGACAAAAC [Vinxlusion 2 - Jieux - Exclusion 1] (Eterna round: R97, puzzle: Exclusion 1)",apparent KD of MS2 coat protein,input ligand: FMN 200 uM,95 nM
same,apparent KD of MS2 coat protein,input ligand: none,59.1 nM
"UUUGUUUAUGUAGGAUAUGCCUGGCGUGCCUUCGCAGAAGGACAUGAGGAUCACCCAUGUAUUGCGGUCUGCGUUCAGAUCGCU [salish99_ExNG1_r4_030] (Eterna round: R96, puzzle: Exclusion NG 1)",apparent KD of MS2 coat protein,input ligand: FMN 200 uM,46.8 nM
same,apparent KD of MS2 coat protein,[4],29.1 nM
same,apparent KD of MS2 coat protein,input ligand: none,41.8 nM
"AAGAGCGUAGGAUAUACAUGAGGAUCACCCAUGUGUGGAGGACCUGGCCACAUAAGGAGUAGAAGGGCGCAUCU [Eternabot (L2) Solution 92] (Eterna round: R97, puzzle: Exclusion 3)",apparent KD of MS2 coat protein,input ligand: FMN 200 uM,110 nM
same,apparent KD of MS2 coat protein,input ligand: none,87 nM
"AGUAGUAGUAUCCGUUCUUACAUGAGGAUCACCCAUGUUUCUUGACGUGCACGCGAUGCUCGUCAGACUACCAGAUG [salish99_TOv1_r3_055] (puzzle: Sensor v3, turn-off variant 1)",apparent KD of MS2 coat protein,[1],68.5 nM
same,apparent KD of MS2 coat protein,[2],88.4 nM
same,apparent KD of MS2 coat protein,[3],91.5 nM
"UCUCGGACAGGAUAUCUGUCAUCUGACAUGAGGAUCACCCAUGUCCUCGCCGCCAACCCAAGAGAAGGGUCCCACA [Eternabot (L1) Solution 76] (Eterna round: R97, puzzle: Exclusion 5)",apparent KD of MS2 coat protein,input ligand: FMN 200 uM,99.2 nM
same,apparent KD of MS2 coat protein,input ligand: none,120 nM
"GUAUGUCUAGGAUAUAUAUUGGAAUGUCCGUGUCCUAGCCAACAUGAGGAUCACCCAUGUAGAAGGAGAUGUGU [Eternabot (L1) Solution 97] (Eterna round: R97, puzzle: Exclusion 2)",apparent KD of MS2 coat protein,input ligand: FMN 200 uM,43.5 nM
same,apparent KD of MS2 coat protein,input ligand: none,52.8 nM
AAGAACGUAGGAUAUACAUGAGGAUCACCCAUGUGAGGAAGGAGUAGGAAGCGUGGAAGUAGAAGGACGGAGAG [JR_Exclu3_Sub075] (puzzle: Exclusion 3),apparent KD of MS2 coat protein,[1],27.9 nM
same,apparent KD of MS2 coat protein,[2],39.4 nM
same,apparent KD of MS2 coat protein,[3],29.3 nM
